Assay results: patent publication US7098012B1, “DNA demethylase, therapeutic and diagnostic uses thereof” (McGill University, priority 1997, dated 2006)

B1: proteinase K: proteinase K (Sigma) used to pretreat DNA dMTase (protein, UniProt P06873 106-384, looked up)
Proteinase K: AAQTNAPWGLARISSTSPGTSTYYYDESAGQGSCVYVIDTGIEASHPEFEGRAQMVKTYYYSSRDGNGHGTHCAGTVGSRTYGVAKKTQLFGVKVLDDNGSGQYSTIIAGMDFVASDKNNRNCPKGVVASLSLGGGYSSSVNSAAARLQSSGVMVAVAAGNNNADARNYSPASEPSVCTVGASDRYDRRSSFSNYGSVLDIFGPGTSILSTWIGGSTRSISGTSMATPHVAGLAAYLMTLGKTTAASACRYIADTANKGDLSNIPFGTVNLLAYNNYQA
B2: RNase: RNase A (Sigma) used to treat column fractions (protein, UniProt P61823 27-150, looked up)
Ribonuclease pancreatic: KETAAAKFERQHMDSSTSAASSSNYCNQMMKSRNLTKDRCKPVNTFVHESLADVQAVCSQKNVACKNGQTNCYQSYSTMSITDCRETGSSKYPNCAYKTTQANKHIIVACEGNPYVPVHFDASV

Tested on: DNA dMTase
Experiment: Demethylation of [mdC32pdG]n substrate (conversion of mdCMP to dCMP) with additives or pretreatment
Assay type: biochemical, human
Conditions: transformation of mdC to C or release of volatile methyl residues; proteinase K 200 μg/ml 1 h 56° C.; RNase A 100 μg/ml
Procedure: (A) To assay the conversion of methyl-dCMP (mdCMP) to dCMP we used a previously described method (Szyf et al., 1995). Briefly, α^32P labeled, fully methylated poly[mdC^32PdG]n substrate was prepared as follows. One hundred ng of a double-stranded fully methylated (mdCpdG) oligomer (Pharmacia) were denatured by boiling, which was followed by partial annealing at room temperature. The complementary strand was extended with Klenow fragment (Boehringer Mannheim) using methyl-5-dCTP (mdCTP, 0.1 mM) (Boehringer Mannheim) and […] (100 μCi, 3000 Ci/mmol), and the unincorporated nucleotides were removed by chromatography through a NAP-5 column (Pharmacia). The NAP-5 chromatography was repeated to exclude minor contamination with unincorporated nucleotides. […] The digestion products were loaded onto a thin layer chromatography plate (TLC) (Kodak, 13255 Cellulose), separated in a medium containing, 132 ml Isobutyric acid:40 ml water:4 ml ammonia solution, autoradiographed and the intensity of the different spots was determined using a phosphorimager (Fuji, BAS 2000). ^32P labeled substrates and tritium labeled substrates were phosphoimaged using BAS 2000 plate and BAS-TR2040 phosphorimager plate respectively. (B) The second method determined removal of methylated residues from methylated DNA by measuring disappearance of ^3H—CH3 or ^14C—CH3 from the reaction mixture. […]

| Molecule | DNA dMTase activity after enzyme treatment |
| --- | --- |
| B1 | abolished |
| B2 | not inhibited but rather enhanced |
